Laboratory results taken from IntAct's records for PubMed 29892012.

B1: TBC1 domain family member 22B (Homo sapiens), Q9NU19 (parent)
chain: MAAENSKQFWKRSAKLPGSIQPVYGAQHPPLDPRLTKNFIKERSKVNTVPLKNKKASSFHEFARNTSDAWDIGDDEEEDFSSPSFQTLNSKVALATAAQVLENHSKLRVKPERSQSTTSDVPANYKVIKSSSDAQLSRNSSDTCLRNPLHKQQSLPLRPIIPLVARISDQNASGAPPMTVREKTRLEKFRQLLSSQNTDLDELRKCSWPGVPREVRPITWRLLSGYLPANTERRKLTLQRKREEYFGFIEQYYDSRNEEHHQDTYRQIHIDIPRTNPLIPLFQQPLVQEIFERILFIWAIRHPASGYVQGINDLVTPFFVVFLSEYVEEDVENFDVTNLSQDMLRSIEADSFWCMSKLLDGIQDNYTFAQPGIQKKVKALEELVSRIDEQVHNHFRRYEVEYLQFAFRWMNNLLMRELPLRCTIRLWDTYQSEPEGFSHFHLYVCAAFLIKWRKEILDEEDFQGLLMLLQNLPTIHWGNEEIGLLLAEAYRLKYMFADAPNHYRR
partner: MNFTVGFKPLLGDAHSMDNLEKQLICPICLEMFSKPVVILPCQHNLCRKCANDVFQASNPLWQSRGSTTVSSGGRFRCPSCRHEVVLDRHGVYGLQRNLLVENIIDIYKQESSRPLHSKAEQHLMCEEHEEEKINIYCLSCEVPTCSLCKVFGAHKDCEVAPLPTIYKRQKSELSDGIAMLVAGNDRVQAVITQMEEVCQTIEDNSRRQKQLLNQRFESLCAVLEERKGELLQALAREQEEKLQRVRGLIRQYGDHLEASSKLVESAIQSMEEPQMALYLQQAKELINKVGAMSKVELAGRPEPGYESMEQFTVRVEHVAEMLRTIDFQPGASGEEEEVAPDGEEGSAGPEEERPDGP
B2: Coiled-coil alpha-helical rod protein 1 (Homo sapiens), Q8TD31 (parent)
chain: MFPPSGSTGLIPPSHFQARPLSTLPRMAPTWLSDIPLVQPPGHQDVSERRLDTQRPQVTMWERDVSSDRQEPGRRGRSWGLEGSQALSQQAEVIVRQLQELRRLEEEVRLLRETSLQQKMRLEAQAMELEALARAEKAGRAEAEGLRAALAGAEVVRKNLEEGSQRELEEVQRLHQEQLSSLTQAHEEALSSLTSKAEGLEKSLSSLETRRAGEAKELAEAQREAELLRKQLSKTQEDLEAQVTLVENLRKYVGEQVPSEVHSQTWELERQKLLETMQHLQEDRDSLHATAELLQVRVQSLTHILALQEEELTRKVQPSDSLEPEFTRKCQSLLNRWREKVFALMVQLKAQELEHSDSVKQLKGQVASLQEKVTSQSQEQAILQRSLQDKAAEVEVERMGAKGLQLELSRAQEARRRWQQQTASAEEQLRLVVNAVSSSQIWLETTMAKVEGAAAQLPSLNNRLSYAVRKVHTIRGLIARKLALAQLRQESCPLPPPVTDVSLELQQLREERNRLDAELQLSARLIQQEVGRAREQGEAERQQLSKVAQQLEQELQQTQESLASLGLQLEVARQGQQESTEEAASLRQELTQQQELYGQALQEKVAEVETRLREQLSDTERRLNEARREHAKAVVSLRQIQRRAAQEKERSQELRRLQEEARKEEGQRLARRLQELERDKNLMLATLQQEGLLSRYKQQRLLTVLPSLLDKKKSVVSSPRPPECSASAPVAAAVPTRESIKGSLSVLLDDLQDLSEAISKEEAVCQGDNLDRCSSSNPQMSS
partner: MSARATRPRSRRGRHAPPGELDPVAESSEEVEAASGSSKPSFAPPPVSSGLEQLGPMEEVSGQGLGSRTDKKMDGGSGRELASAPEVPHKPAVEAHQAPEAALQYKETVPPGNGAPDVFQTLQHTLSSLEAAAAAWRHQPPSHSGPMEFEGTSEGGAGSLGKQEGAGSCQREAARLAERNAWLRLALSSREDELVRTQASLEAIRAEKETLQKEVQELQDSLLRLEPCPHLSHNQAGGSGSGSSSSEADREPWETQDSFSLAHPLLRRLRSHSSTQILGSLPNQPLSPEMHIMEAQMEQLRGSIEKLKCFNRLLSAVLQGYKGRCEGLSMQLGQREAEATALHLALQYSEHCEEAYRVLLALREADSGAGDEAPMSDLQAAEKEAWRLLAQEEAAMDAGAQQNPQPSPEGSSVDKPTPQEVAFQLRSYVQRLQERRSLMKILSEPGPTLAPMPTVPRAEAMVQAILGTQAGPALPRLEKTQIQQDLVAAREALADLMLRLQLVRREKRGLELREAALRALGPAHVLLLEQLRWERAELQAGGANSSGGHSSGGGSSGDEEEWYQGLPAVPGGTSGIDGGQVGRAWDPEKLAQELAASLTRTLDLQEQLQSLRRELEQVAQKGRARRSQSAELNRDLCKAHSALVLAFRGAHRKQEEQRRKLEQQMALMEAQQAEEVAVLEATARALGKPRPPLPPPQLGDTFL
B3: TBC1 domain family member 22B (Homo sapiens), Q9NU19 (parent)
chain: B1 chain
B4: Coiled-coil alpha-helical rod protein 1 (Homo sapiens), Q8TD31 (parent)
chain: B2 chain
partner: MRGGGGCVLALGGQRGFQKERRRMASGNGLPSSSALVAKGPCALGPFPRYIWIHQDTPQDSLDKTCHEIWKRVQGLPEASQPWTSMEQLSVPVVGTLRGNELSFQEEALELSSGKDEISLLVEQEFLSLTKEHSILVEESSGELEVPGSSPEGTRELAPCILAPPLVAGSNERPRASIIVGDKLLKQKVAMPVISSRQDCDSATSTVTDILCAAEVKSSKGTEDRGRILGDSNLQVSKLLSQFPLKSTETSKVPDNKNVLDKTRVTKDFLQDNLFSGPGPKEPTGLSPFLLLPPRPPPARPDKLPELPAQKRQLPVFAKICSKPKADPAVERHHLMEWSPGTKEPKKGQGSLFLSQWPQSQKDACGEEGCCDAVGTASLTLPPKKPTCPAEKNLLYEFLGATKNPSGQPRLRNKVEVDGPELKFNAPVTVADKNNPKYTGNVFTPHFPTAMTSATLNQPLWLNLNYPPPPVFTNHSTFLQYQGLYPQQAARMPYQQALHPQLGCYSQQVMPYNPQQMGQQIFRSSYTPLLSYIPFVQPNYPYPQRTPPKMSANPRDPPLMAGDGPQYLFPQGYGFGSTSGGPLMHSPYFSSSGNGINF
B5: Coiled-coil alpha-helical rod protein 1 (Homo sapiens), Q8TD31 (parent)
chain: B2 chain
partner: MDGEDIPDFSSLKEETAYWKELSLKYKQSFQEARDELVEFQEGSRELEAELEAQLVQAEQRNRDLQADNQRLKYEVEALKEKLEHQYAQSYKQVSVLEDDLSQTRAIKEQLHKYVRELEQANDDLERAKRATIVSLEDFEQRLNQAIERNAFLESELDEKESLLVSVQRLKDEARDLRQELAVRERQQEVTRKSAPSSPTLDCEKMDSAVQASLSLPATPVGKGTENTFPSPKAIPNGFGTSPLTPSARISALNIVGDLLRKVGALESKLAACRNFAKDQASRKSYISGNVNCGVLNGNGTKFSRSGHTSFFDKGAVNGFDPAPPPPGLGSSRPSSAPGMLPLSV

Variants of: B1
Settings: with tri54_human TRIM54, Q9BYV2

Variant	effect of a mutation on the interaction
MAAENSKQFWKRSAKLPGSIQPVYGAQHPPLDPRLTKNFIKERSKVNTVPLKNKKASSFHEFARNTSDAWDIGDDEEEDFSSPSFQTLNSKVALATAAQVLENHSKLRVKPERSQSTTSDVPANYKVIKSSSDAQLSRNSSDTCLRNPLHKQQSLPLRPIIPLVARISDQNASGAPPMTVREKTRLEKFRQLLSSQNTDLDELRKCSWPGVPREVRPITWRLLSGYLPANTERRKLTLQRKREEYFGFIEQYYDSRNEEHHQDTYRQIHIDIPRTNPLIPLFQQPLVQEIFERILFIWAIRHPASGYVQGINDLVTPFFVVFLSEYVEEDVENFDVTNLSQDMLRSIETDSFWCMSKLLDGIQDNYTFAQPGIQKKVKALEELVSRIDEQVHNHFRRYEVEYLQFAFRWMNNLLMRELPLRCTIRLWDTYQSEPEGFSHFHLYVCAAFLIKWRKEILDEEDFQGLLMLLQNLPTIHWGNEEIGLLLAEAYRLKYMFADAPNHYRR [A349T]	disrupting interaction strength

Variants of: B2
Settings: with usbp1_human USHBP1, Q8N6Y0

Variant	effect of a mutation on the interaction
W337R	disrupting interaction strength

Variants of: B3
Settings: with fxr2_human FXR2, P51116
Chain of fxr2_human FXR2, P51116 (P51116 whole entry): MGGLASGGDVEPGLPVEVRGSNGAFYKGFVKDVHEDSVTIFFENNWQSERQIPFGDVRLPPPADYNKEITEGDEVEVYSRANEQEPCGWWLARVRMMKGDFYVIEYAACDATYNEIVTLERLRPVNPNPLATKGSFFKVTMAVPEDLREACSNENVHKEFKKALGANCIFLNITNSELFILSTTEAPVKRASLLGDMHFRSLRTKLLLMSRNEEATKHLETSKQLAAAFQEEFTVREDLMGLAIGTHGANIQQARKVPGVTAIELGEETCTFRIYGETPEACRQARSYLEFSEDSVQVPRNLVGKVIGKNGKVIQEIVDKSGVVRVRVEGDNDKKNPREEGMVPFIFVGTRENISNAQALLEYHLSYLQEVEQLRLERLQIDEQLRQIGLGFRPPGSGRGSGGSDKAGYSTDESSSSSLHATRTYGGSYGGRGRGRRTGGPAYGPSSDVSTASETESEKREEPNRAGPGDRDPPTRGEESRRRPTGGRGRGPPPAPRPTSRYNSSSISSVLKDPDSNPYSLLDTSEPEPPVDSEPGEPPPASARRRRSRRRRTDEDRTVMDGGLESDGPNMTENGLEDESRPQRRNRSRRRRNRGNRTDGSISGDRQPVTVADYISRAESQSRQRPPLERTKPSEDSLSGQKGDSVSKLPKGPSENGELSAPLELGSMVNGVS

Variant	effect of a mutation on the interaction
MAAENSKQFWKRSAKLPGSIQPVYGAQHPPLDPRLTKNFIKERSKVNTVPLKNKKASSFHEFARNTSDAWDIGDDEEEDFSSPSFQTLNSKVALATAAQVLENHSKLRVKPERSQSTTSDVPANYKVIKSSSDAQLSRNSSDTCLRNPLHKQQSLPLRPIIPLVARISDQNASGAPPMTVREKTRLEKFRQLLSSQNTDLDELRKCSWPGVPREVRPITWRLLSGYLPANTERRKLTLQRKREEYFGFIEQYYDSRNEEHHQDTYRQIHIDIPRTNPLIPLFQQPLVQEIFERILFIWAIRHPASGYVQGINDLVTPFFVVFLSEYVEEDVENFDVTNLSQDMLRSIETDSFWCMSKLLDGIQDNYTFAQPGIQKKVKALEELVSRIDEQVHNHFRRYEVEYLQFAFRWMNNLLMRELPLRCTIRLWDTYQSEPEGFSHFHLYVCAAFLIKWRKEILDEEDFQGLLMLLQNLPTIHWGNEEIGLLLAEAYRLKYMFADAPNHYRR [A349T]	disrupting interaction strength

Variants of: B3
Settings: with ikzf3_human IKZF3, Q9UKT9
Chain of ikzf3_human IKZF3, Q9UKT9 (Q9UKT9 whole entry): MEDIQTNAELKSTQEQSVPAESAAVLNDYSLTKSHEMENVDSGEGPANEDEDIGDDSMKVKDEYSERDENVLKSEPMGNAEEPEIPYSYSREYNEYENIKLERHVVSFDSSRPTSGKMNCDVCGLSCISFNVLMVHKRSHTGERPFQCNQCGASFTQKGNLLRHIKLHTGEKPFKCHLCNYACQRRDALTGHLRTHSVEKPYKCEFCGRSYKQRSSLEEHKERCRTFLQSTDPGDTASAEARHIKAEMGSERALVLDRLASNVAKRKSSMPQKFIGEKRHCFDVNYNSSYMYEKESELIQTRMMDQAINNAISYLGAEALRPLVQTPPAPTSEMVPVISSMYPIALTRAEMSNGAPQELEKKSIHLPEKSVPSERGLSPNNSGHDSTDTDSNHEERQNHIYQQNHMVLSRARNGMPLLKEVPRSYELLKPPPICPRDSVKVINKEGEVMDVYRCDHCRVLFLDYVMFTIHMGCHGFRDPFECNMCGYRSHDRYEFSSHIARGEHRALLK

Variant	effect of a mutation on the interaction
MAAENSKQFWKRSAKLPGSIQPVYGAQHPPLDPRLTKNFIKERSKVNTVPLKNKKASSFHEFARNTSDAWDIGDDEEEDFSSPSFQTLNSKVALATAAQVLENHSKLRVKPERSQSTTSDVPANYKVIKSSSDAQLSRNSSDTCLRNPLHKQQSLPLRPIIPLVARISDQNASGAPPMTVREKTRLEKFRQLLSSQNTDLDELRKCSWPGVPREVRPITWRLLSGYLPANTERRKLTLQRKREEYFGFIEQYYDSRNEEHHQDTYRQIHIDIPRTNPLIPLFQQPLVQEIFERILFIWAIRHPASGYVQGINDLVTPFFVVFLSEYVEEDVENFDVTNLSQDMLRSIETDSFWCMSKLLDGIQDNYTFAQPGIQKKVKALEELVSRIDEQVHNHFRRYEVEYLQFAFRWMNNLLMRELPLRCTIRLWDTYQSEPEGFSHFHLYVCAAFLIKWRKEILDEEDFQGLLMLLQNLPTIHWGNEEIGLLLAEAYRLKYMFADAPNHYRR [A349T]	disrupting interaction strength

Variants of: B3
Settings: with tacc3_human TACC3, Q9Y6A5

Variant	effect of a mutation on the interaction
MAAENSKQFWKRSAKLPGSIQPVYGAQHPPLDPRLTKNFIKERSKVNTVPLKNKKASSFHEFARNTSDAWDIGDDEEEDFSSPSFQTLNSKVALATAAQVLENHSKLRVKPERSQSTTSDVPANYKVIKSSSDAQLSRNSSDTCLRNPLHKQQSLPLRPIIPLVARISDQNASGAPPMTVREKTRLEKFRQLLSSQNTDLDELRKCSWPGVPREVRPITWRLLSGYLPANTERRKLTLQRKREEYFGFIEQYYDSRNEEHHQDTYRQIHIDIPRTNPLIPLFQQPLVQEIFERILFIWAIRHPASGYVQGINDLVTPFFVVFLSEYVEEDVENFDVTNLSQDMLRSIETDSFWCMSKLLDGIQDNYTFAQPGIQKKVKALEELVSRIDEQVHNHFRRYEVEYLQFAFRWMNNLLMRELPLRCTIRLWDTYQSEPEGFSHFHLYVCAAFLIKWRKEILDEEDFQGLLMLLQNLPTIHWGNEEIGLLLAEAYRLKYMFADAPNHYRR [A349T]	disrupting interaction strength

Variants of: B3
Settings: with tri23_human TRIM23, P36406
Chain of tri23_human TRIM23, P36406 (P36406 whole entry): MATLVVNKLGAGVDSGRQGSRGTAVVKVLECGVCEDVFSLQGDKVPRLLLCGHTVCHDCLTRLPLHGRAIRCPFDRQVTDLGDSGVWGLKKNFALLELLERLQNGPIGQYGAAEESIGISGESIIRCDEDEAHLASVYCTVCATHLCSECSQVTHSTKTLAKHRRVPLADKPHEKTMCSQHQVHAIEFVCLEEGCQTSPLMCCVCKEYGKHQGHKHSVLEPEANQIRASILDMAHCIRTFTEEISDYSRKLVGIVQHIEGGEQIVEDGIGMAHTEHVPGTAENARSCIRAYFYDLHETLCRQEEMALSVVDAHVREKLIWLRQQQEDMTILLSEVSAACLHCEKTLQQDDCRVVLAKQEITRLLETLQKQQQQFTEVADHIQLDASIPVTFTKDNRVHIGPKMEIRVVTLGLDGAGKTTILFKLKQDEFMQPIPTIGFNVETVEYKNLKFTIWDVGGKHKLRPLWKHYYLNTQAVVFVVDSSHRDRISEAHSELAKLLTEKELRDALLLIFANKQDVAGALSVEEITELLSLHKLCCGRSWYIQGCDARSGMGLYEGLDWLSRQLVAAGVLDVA

Variant	effect of a mutation on the interaction
MAAENSKQFWKRSAKLPGSIQPVYGAQHPPLDPRLTKNFIKERSKVNTVPLKNKKASSFHEFARNTSDAWDIGDDEEEDFSSPSFQTLNSKVALATAAQVLENHSKLRVKPERSQSTTSDVPANYKVIKSSSDAQLSRNSSDTCLRNPLHKQQSLPLRPIIPLVARISDQNASGAPPMTVREKTRLEKFRQLLSSQNTDLDELRKCSWPGVPREVRPITWRLLSGYLPANTERRKLTLQRKREEYFGFIEQYYDSRNEEHHQDTYRQIHIDIPRTNPLIPLFQQPLVQEIFERILFIWAIRHPASGYVQGINDLVTPFFVVFLSEYVEEDVENFDVTNLSQDMLRSIETDSFWCMSKLLDGIQDNYTFAQPGIQKKVKALEELVSRIDEQVHNHFRRYEVEYLQFAFRWMNNLLMRELPLRCTIRLWDTYQSEPEGFSHFHLYVCAAFLIKWRKEILDEEDFQGLLMLLQNLPTIHWGNEEIGLLLAEAYRLKYMFADAPNHYRR [A349T]	disrupting interaction strength

Variants of: B3
Settings: with pnma5_human PNMA5, Q96PV4
Chain of pnma5_human PNMA5, Q96PV4 (Q96PV4 whole entry): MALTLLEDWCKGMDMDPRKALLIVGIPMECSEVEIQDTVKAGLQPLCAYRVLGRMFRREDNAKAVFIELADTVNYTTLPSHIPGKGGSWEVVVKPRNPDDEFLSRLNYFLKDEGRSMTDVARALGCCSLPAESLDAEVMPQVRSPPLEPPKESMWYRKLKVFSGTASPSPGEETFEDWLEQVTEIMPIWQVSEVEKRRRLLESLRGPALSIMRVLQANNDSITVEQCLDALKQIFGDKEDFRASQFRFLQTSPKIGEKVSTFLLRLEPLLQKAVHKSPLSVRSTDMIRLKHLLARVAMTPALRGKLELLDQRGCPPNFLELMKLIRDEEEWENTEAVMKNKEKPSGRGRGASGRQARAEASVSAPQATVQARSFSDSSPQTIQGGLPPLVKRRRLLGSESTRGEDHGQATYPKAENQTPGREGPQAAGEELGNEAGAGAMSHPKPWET

Variant	effect of a mutation on the interaction
MAAENSKQFWKRSAKLPGSIQPVYGAQHPPLDPRLTKNFIKERSKVNTVPLKNKKASSFHEFARNTSDAWDIGDDEEEDFSSPSFQTLNSKVALATAAQVLENHSKLRVKPERSQSTTSDVPANYKVIKSSSDAQLSRNSSDTCLRNPLHKQQSLPLRPIIPLVARISDQNASGAPPMTVREKTRLEKFRQLLSSQNTDLDELRKCSWPGVPREVRPITWRLLSGYLPANTERRKLTLQRKREEYFGFIEQYYDSRNEEHHQDTYRQIHIDIPRTNPLIPLFQQPLVQEIFERILFIWAIRHPASGYVQGINDLVTPFFVVFLSEYVEEDVENFDVTNLSQDMLRSIETDSFWCMSKLLDGIQDNYTFAQPGIQKKVKALEELVSRIDEQVHNHFRRYEVEYLQFAFRWMNNLLMRELPLRCTIRLWDTYQSEPEGFSHFHLYVCAAFLIKWRKEILDEEDFQGLLMLLQNLPTIHWGNEEIGLLLAEAYRLKYMFADAPNHYRR [A349T]	disrupting interaction strength

Variants of: B4
Settings: with ca094_human C1orf94, Q6P1W5

Variant	effect of a mutation on the interaction
W337R	disrupting interaction strength

Variants of: B5
Settings: with ndel1_human NDEL1, Q9GZM8

Variant	effect of a mutation on the interaction
W337R	disrupting interaction strength
